Experimental data taken from patent US20260242478A1 (published 2026).
Where no end group is shown, it is not given here.

B1: Phage-1195 (peptide)
peptide: YCEGHIPAYMAKCL
modifications: cysteine pairing not given here; also: displayed on phage by fusion to pIII, linker and pIII sequence not given here
B2: Phage-1196 (peptide)
peptide: YCDGHAPIYMQKCL
modifications: cysteine pairing not given here; also: displayed on phage by fusion to pIII, linker and pIII sequence not given here
B3: Phage-1197 (peptide)
peptide: YCEGHLWEYMKKCL
modifications: cysteine pairing not given here; also: displayed on phage by fusion to pIII, linker and pIII sequence not given here
B4: Phage-1198 (peptide)
peptide: YCEGHDVQYMQKCL
modifications: cysteine pairing not given here; also: displayed on phage by fusion to pIII, linker and pIII sequence not given here
B5: Phage-1199 (peptide)
peptide: YCEGHSSEYLGKCL
modifications: cysteine pairing not given here; also: displayed on phage by fusion to pIII, linker and pIII sequence not given here
B6: Phage-1200 (peptide)
peptide: YCDGHLPRYMEKCM
modifications: cysteine pairing not given here; also: displayed on phage by fusion to pIII, linker and pIII sequence not given here
B7: Phage-1201 (peptide)
peptide: YCDGHSSAYIDKCL
modifications: cysteine pairing not given here; also: displayed on phage by fusion to pIII, linker and pIII sequence not given here
B8: Phage-1202 (peptide)
peptide: YCEGHLPSYLAKCL
modifications: cysteine pairing not given here; also: displayed on phage by fusion to pIII, linker and pIII sequence not given here
B9: Phage-1203 (peptide)
peptide: YCDGHAPEFIRKCL
modifications: cysteine pairing not given here; also: displayed on phage by fusion to pIII, linker and pIII sequence not given here
B10: Phage-1204 (peptide)
peptide: YCEGHAPQYMSKCL
modifications: cysteine pairing not given here; also: displayed on phage by fusion to pIII, linker and pIII sequence not given here
B11: Phage-1205 (peptide)
peptide: YCDGHDARYMTKCL
modifications: cysteine pairing not given here; also: displayed on phage by fusion to pIII, linker and pIII sequence not given here
B12: Phage-1175 (peptide)
peptide: YCVGHSEQYMAKCL
modifications: cysteine pairing not given here; also: displayed on phage by fusion to pIII, linker and pIII sequence not given here
notes: Clonal phage of the Peptide-87 library; not shown: fused to the pIII filament of the bacteriophage
B13: Phage-1176 (peptide)
peptide: YCDGHEAEYMWKCL
modifications: cysteine pairing not given here; also: displayed on phage by fusion to pIII, linker and pIII sequence not given here
notes: as for B12
B14: Phage-1177 (peptide)
peptide: YCEGHAEQYMKKCL
modifications: cysteine pairing not given here; also: displayed on phage by fusion to pIII, linker and pIII sequence not given here
notes: as for B12
B15: Phage-1178 (peptide)
peptide: YCDGHVVEYMSKCL
modifications: cysteine pairing not given here; also: displayed on phage by fusion to pIII, linker and pIII sequence not given here
notes: as for B12
B16: Phage-1179 (peptide)
peptide: YCAGHLPQYMHKCL
modifications: cysteine pairing not given here; also: displayed on phage by fusion to pIII, linker and pIII sequence not given here
notes: as for B12
B17: Phage-1180 (peptide)
peptide: YCDGHIWPWIEKCL
modifications: cysteine pairing not given here; also: displayed on phage by fusion to pIII, linker and pIII sequence not given here
notes: as for B12
B18: Phage-1181 (peptide)
peptide: YCEGHSSLYLEKCL
modifications: cysteine pairing not given here; also: displayed on phage by fusion to pIII, linker and pIII sequence not given here
notes: as for B12

Molecular target: T1, Anti-CD28 Fab (SEQ ID NOs: 696, 697)
T1 construct: In the phage ELISA the Fab was biotinylated and captured on neutravidin coated plates
Assay: phage ELISA; captured anti-CD28 Fab pre-incubated with CD28 antigen as competitor, anti-M13 HRP;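 also: crude clonal phage supernatants added without washing after CD28 pre-incubation, bound phage detected with HRP anti-M13 antibody, reference wells got blocking buffer lacking CD28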
T1 sequence (VH, as listed by the source, chain 1 of 2): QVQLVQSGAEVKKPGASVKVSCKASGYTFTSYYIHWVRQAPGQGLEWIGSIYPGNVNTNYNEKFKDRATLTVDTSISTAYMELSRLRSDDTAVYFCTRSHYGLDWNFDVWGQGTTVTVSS
T1 sequence (VL, as listed by the source, chain 2 of 2): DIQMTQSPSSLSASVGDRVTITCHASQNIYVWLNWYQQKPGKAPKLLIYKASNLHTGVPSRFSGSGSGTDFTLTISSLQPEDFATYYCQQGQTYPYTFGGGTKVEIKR
Experimental: (§1) After panning, phage infected bacteria were plated out and colonies picked into 96 well blocks. Clonal phage was then amplified and separated from bacterial cells via centrifugation.
(§2) Clonal phage were harvested as crude supematants and screened via standard ELISAs. […] Prior to the addition of clonal phage, wells were incubated with blocking buffer and CD28 antigen or blocking buffer alone. Without washing or aspirating, clonal phage supematants were then added to the wells and incubated for a short time. Wells were then washed followed by detection of bound phage using a horse radish conjugated anti-M13 antibody. Clonal phage of interest were then sent for sequence analysis.

Row | Binder | Anti-CD28 Fab signal in the presence of CD28 (phage binding ELISA)
1 | B1 | 0.08
2 | B2 | 0.06
3 | B3 | 0.07
4 | B4 | 0.08
5 | B5 | 0.09
6 | B6 | 0.06
7 | B7 | 0.06
8 | B8 | 0.06
9 | B9 | 0.07
10 | B10 | 0.08
11 | B11 | 0.09

Molecular target: T2, Anti-CD28 Fab (SEQ ID NOs: 696, 697)
T2 construct: Biotinylated and captured on neutravidin coated plates in the phage ELISA
Assay: clonal phage ELISA on captured anti-CD28 Fab; wells pre-incubated with CD28 antigen as competitor
T2 sequence (VH, as listed by the source, chain 1 of 2): as the sequence (VH, as listed by the source, chain 1 of 2) above
T2 sequence (VL, as listed by the source, chain 2 of 2): as the sequence (VL, as listed by the source, chain 2 of 2) above
Experimental: as §1, §2

Row | Binder | Phage binding ELISA, Anti-CD28 Fab signal in the presence of CD28
12 | YCDGHAMEYMEKCL [Phage-1182] | 0.08
13 | YCEGHLWEYLAKCL [Phage-1183] | 0.05
14 | YCEGHMGEYMLKCL [Phage-1184] | 0.06
15 | YCDGHTKEYMWKCL [Phage-1185] | 0.06
16 | YCAGHAEEYMLKCL [Phage-1186] | 0.07
17 | YCEGHSAEYIGKCL [Phage-1187] | 0.07
18 | YCVGHLPEYMLECM [Phage-1188] | 0.07
19 | YCDGHSFHYMAKCL [Phage-1189] | 0.06
20 | YCEGHSEMYMSKCL [Phage-1190] | 0.09
21 | YCDGHANAYIWKCL [Phage-1191] | 0.09
22 | YCEGHIPMYMLKCM [Phage-1192] | 0.09
23 | YCEGHAQEYMAKCL [Phage-1193] | 0.08
24 | YCDGHAKVYIWKCL [Phage-1194] | 0.08

Molecular target: Anti-CD28 Fab (SEQ ID NOs: 696, 697)
Assay: phage binding ELISA on captured anti-CD28 Fab; competitor CD28 antigen pre-incubated in the wells
Target sequence in this assay (VH, as listed by the source, chain 1 of 2): as the sequence (VH, as listed by the source, chain 1 of 2) above
Target sequence in this assay (VL, as listed by the source, chain 2 of 2): as the sequence (VL, as listed by the source, chain 2 of 2) above
Experimental: as §1, §2

Row | Binder | Anti-CD28 Fab signal in the presence of CD28
25 | B12 | 0.06
26 | B13 | 0.1
27 | B14 | 0.07
28 | B15 | 0.08
29 | B16 | 0.08
30 | B17 | 0.11
31 | B18 | 0.08

Molecular target: T1, Anti-CD28 Fab (SEQ ID NOs: 696, 697)
Assay: phage ELISA; biotinylated anti-CD28 Fab on neutravidin plate, clonal phage supernatant, anti-M13 HRP
Experimental: as §1, §2

Row | Binder | Anti-CD28 Fab signal (phage binding ELISA)
32 | B1 | 1.06
33 | B2 | 1.06
34 | B3 | 1.06
35 | B4 | 1.06
36 | B5 | 1.05
37 | B6 | 1.05
38 | B7 | 1.05
39 | B8 | 1.05
40 | B9 | 1.05
41 | B10 | 1.04
42 | B11 | 1.04

Molecular target: T2, Anti-CD28 Fab (SEQ ID NOs: 696, 697)
Assay: clonal phage ELISA; biotinylated anti-CD28 Fab on neutravidin plate, bound phage detected with anti-M13 HRP
Experimental: as §1, §2

Row | Binder | Phage binding ELISA, Anti-CD28 Fab signal
43 | YCDGHAMEYMEKCL [Phage-1182] | 1.11
44 | YCEGHLWEYLAKCL [Phage-1183] | 1.1
45 | YCEGHMGEYMLKCL [Phage-1184] | 1.1
46 | YCDGHTKEYMWKCL [Phage-1185] | 1.1
47 | YCAGHAEEYMLKCL [Phage-1186] | 1.09
48 | YCEGHSAEYIGKCL [Phage-1187] | 1.08
49 | YCVGHLPEYMLECM [Phage-1188] | 1.08
50 | YCDGHSFHYMAKCL [Phage-1189] | 1.08
51 | YCEGHSEMYMSKCL [Phage-1190] | 1.07
52 | YCDGHANAYIWKCL [Phage-1191] | 1.07
53 | YCEGHIPMYMLKCM [Phage-1192] | 1.06
54 | YCEGHAQEYMAKCL [Phage-1193] | 1.06
55 | YCDGHAKVYIWKCL [Phage-1194] | 1.06

Molecular target: Anti-CD28 Fab (SEQ ID NOs: 696, 697)
Assay: phage binding ELISA; biotinylated anti-CD28 Fab on neutravidin plate, clonal phage supernatant, anti-M13 HRP;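 also: crude clonal phage supernatants screened after wells were preincubated either with CD28 antigen in blocking buffer or with blocking buffer only, phage added without washing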
Target sequence in this assay (VH, as listed by the source, chain 1 of 2): as the sequence (VH, as listed by the source, chain 1 of 2) above
Target sequence in this assay (VL, as listed by the source, chain 2 of 2): as the sequence (VL, as listed by the source, chain 2 of 2) above
Experimental: as §1, §2

Row | Binder | Anti-CD28 Fab (SEQ ID NOs: 696, 697) signal
56 | B12 | 1.13
57 | B13 | 1.13
58 | B14 | 1.12
59 | B15 | 1.12
60 | B16 | 1.11
61 | B17 | 1.11
62 | B18 | 1.11
